In patent publication US20220193132A1 (NATIONAL RESEARCH COUNCIL OF CANADA, published 2022):
Numbering of substitutions follows the chain as printed.

T1: EGFRvIII amino acid residues 15 to 37 with Cys35 to Ala mutation (human)
T1 construct: mutation is already in the entry
T1 peptide: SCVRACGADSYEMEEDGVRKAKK

T2: EGFRvIII amino acid residues 15 to 37 with Arg18 to Ala mutation (human)
T2 construct: mutation is already in the entry
T2 peptide: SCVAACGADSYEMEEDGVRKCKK

T3: EGFRvIII amino acid residues 15 to 37 with Gly21 to Ala mutation (human)
T3 construct: mutation is already in the entry
T3 peptide: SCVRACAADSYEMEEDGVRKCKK

T4: EGFRvIII amino acid residues 15 to 37 with Cys20 to Ala mutation (human)
T4 construct: mutation is already in the entry
T4 peptide: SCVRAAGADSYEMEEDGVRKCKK

T5: EGFRvIII amino acid residues 15 to 37 with Ser15 to Ala mutation (human)
T5 construct: mutation is already in the entry
T5 peptide: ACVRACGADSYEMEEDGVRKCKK

T6: EGFRvIII amino acid residues 15 to 37 with Ser24 to Ala mutation (human)
T6 construct: mutation is already in the entry
T6 peptide: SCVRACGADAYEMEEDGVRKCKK

T7: EGFRvIII amino acid residues 15 to 37 with Glu28 to Ala mutation (human)
T7 construct: mutation is already in the entry
T7 peptide: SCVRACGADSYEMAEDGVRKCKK

T8: EGFRvIII amino acid residues 15 to 37 with Lys34 to Ala mutation (human)
T8 construct: mutation is already in the entry
T8 peptide: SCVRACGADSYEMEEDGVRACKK

T9: EGFRvIII amino acid residues 15 to 37 with Tyr25 to Ala mutation (human)
T9 construct: mutation is already in the entry
T9 peptide: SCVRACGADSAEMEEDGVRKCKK

T10: EGFRvIII amino acid residues 15 to 37 with Val32 to Ala mutation (human)
T10 construct: mutation is already in the entry
T10 peptide: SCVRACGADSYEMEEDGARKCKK

T11: EGFRvIII amino acid residues 15 to 37 with Gly31 to Ala mutation (human)
T11 construct: mutation is already in the entry
T11 peptide: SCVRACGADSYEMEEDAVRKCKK

T12: EGFRvIII amino acid residues 15 to 37 with Cys16 to Ala mutation (human)
T12 construct: mutation is already in the entry
T12 peptide: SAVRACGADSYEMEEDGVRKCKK

T13: EGFRvIII amino acid residues 15 to 37 with Glu26 to Ala mutation (human)
T13 construct: mutation is already in the entry
T13 peptide: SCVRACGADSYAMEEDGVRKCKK

T14: EGFRvIII amino acid residues 15 to 37 with Lys37 to Ala mutation (human)
T14 construct: mutation is already in the entry
T14 peptide: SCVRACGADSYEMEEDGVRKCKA

T15: EGFRvIII amino acid residues 15 to 37 with Lys36 to Ala mutation (human)
T15 construct: mutation is already in the entry
T15 peptide: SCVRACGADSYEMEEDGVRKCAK

T16: EGFRvIII amino acid residues 15 to 37 with Glu29 to Ala mutation (human)
T16 construct: mutation is already in the entry
T16 peptide: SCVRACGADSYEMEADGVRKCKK

T17: EGFRvIII amino acid residues 15 to 37 with Asp23 to Ala mutation (human)
T17 construct: mutation is already in the entry
T17 peptide: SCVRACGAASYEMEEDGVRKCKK

T18: EGFRvIII amino acid residues 15 to 37 with Asp30 to Ala mutation (human)
T18 construct: mutation is already in the entry
T18 peptide: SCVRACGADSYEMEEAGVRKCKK

T19: EGFRvIII amino acid residues 15 to 37 with Arg33 to Ala mutation (human)
T19 construct: mutation is already in the entry
T19 peptide: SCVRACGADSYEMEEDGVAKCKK

T20: EGFRvIII amino acid residues 15 to 37 with Val17 to Ala mutation (human)
T20 construct: mutation is already in the entry
T20 peptide: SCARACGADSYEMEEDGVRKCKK

T21: EGFRvIII fragment amino acid residues 15 to 37, displayed on yeast (human)
T21 construct: also called aa 15-37; fragment 15-37
T21 peptide: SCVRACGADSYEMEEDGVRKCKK

B1: F263-4B3 (antibody, V domains shown)
VH: EVQLQQSGPELVKPGSSVKISCKASGYTFTDYNMDWVKQSHGKSLEWIGTINPNNGGTSYNQKFKGKATLTVDKSSNTAYMELRSLTSEDSAVYYCARGYDYDLWFAYWGQGTLVTVSA
VL: EIVLTQSPALMAASPGEKVTITCSVSSSISSSNLHWYQQKSETSPKPWIYGTSNLASGVPVRFSGSGSGTSYSLTISSMEAEDAATYYCQQWSSYPLTFGAGTKLELE
notes: Mouse hybridoma mAb
B2: F263-5D8 (antibody, V domains shown)
VH: B1 VH with E10D, M34I, N55Y, N77S
VL: B1 VL with A9V, L10F, E108K
notes: Mouse hybridoma mAb

Experiments:
[1] = molecular target: T1, EGFRvIII amino acid residues 15 to 37 …; experiment: yeast display flow cytometry, alanine scan
Excerpt: (§1) Assessment of the binding of anti-EGFRvIII mAbs to the fusion proteins expressed on yeast cell surface was done by flow cytometry analysis. Briefly, yeast cells were labeled with both the anti-hEGFRvIII mAb and chicken anti-Myc antibody, the latter being used to monitor the level of expression of the fusion protein. Following a wash step, binding of the primary antibodies is probed by a two-color indirect fluorescence labeling using secondary antibodies specific for mouse and chicken antibodies, respectively.
(§2) To further characterize mAb epitopes within the EGFRvIII 15-37 region, an alanine scan of this region was performed, and modified fragments were expressed at the surface of the yeast. […] The resulting peptides were expressed at the surface of the yeast and each anti-EGFRvIII mAbs was tested on the corresponding yeast mutant strain by flow cytometry analysis. Thus, this assay determined the contribution of each amino acid(s) in the monoclonal antibody binding.

[2] = molecular target: T2, EGFRvIII amino acid residues 15 to 37 …; experiment: yeast display flow cytometry, alanine scan
Excerpt: as §1, §2

[3] = molecular target: T3, EGFRvIII amino acid residues 15 to 37 …; experiment: yeast display flow cytometry, alanine scan
Excerpt: as §1, §2

[4] = molecular target: T4, EGFRvIII amino acid residues 15 to 37 …; experiment: yeast display flow cytometry, alanine scan
Excerpt: as §1, §2

[5] = molecular target: T22, EGFRvIII, full length, overexpressed on glioblastoma cells (human, UniProt P00533 298-623); experiment: flow cytometry dose-response on U87MG-EGFRvIII cells, apparent Kd
T22 construct: Cells overexpress full length EGFRvIII (deletion of exons 2-7 of EGFR); Cell line (U87MG or DKMG) is named under assay; also called U87MG-EGFRvIII; U87vIII

[6] = molecular target: T5, EGFRvIII amino acid residues 15 to 37 …; experiment: yeast display flow cytometry, Myc-normalized;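 note: Anti-EGFRvIII monoclonal antibodies tested by flow cytometry on yeast displaying alanine-substituted fragments, two-color indirect fluorescence with anti-Myc signal tracking fusion protein expression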
Excerpt: as §1, §2

[7] = molecular target: T6, EGFRvIII amino acid residues 15 to 37 …; experiment: yeast display flow cytometry, Myc-normalized;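 note: Anti-EGFRvIII monoclonal antibodies tested by flow cytometry on yeast displaying alanine-substituted fragments, two-color indirect fluorescence with anti-Myc signal tracking fusion protein expression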
Excerpt: as §1, §2

[8] = molecular target: T7, EGFRvIII amino acid residues 15 to 37 …; experiment: yeast display flow cytometry, Myc-normalized;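 note: Anti-EGFRvIII monoclonal antibodies tested by flow cytometry on yeast displaying alanine-substituted fragments, two-color indirect fluorescence with anti-Myc signal tracking fusion protein expression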
Excerpt: as §1, §2

[9] = molecular target: T8, EGFRvIII amino acid residues 15 to 37 …; experiment: yeast display flow cytometry, Myc-normalized;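 note: Anti-EGFRvIII monoclonal antibodies tested by flow cytometry on yeast displaying alanine-substituted fragments, two-color indirect fluorescence with anti-Myc signal tracking fusion protein expression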
Excerpt: as §1, §2

[10] = molecular target: T9, EGFRvIII amino acid residues 15 to 37 …; experiment: yeast display flow cytometry, Myc-normalized
Excerpt: as §1, §2

[11] = molecular target: T10, EGFRvIII amino acid residues 15 to 37 …; experiment: yeast display flow cytometry, Myc-normalized
Excerpt: as §1, §2

[12] = molecular target: T11, EGFRvIII amino acid residues 15 to 37 …; experiment: yeast display flow cytometry, Myc-normalized
Excerpt: as §1, §2

[13] = molecular target: T12, EGFRvIII amino acid residues 15 to 37 …; experiment: yeast display flow cytometry, Myc-normalized
Excerpt: as §1, §2

[14] = molecular target: T13, EGFRvIII amino acid residues 15 to 37 …; experiment: yeast display flow cytometry, Myc-normalized
Excerpt: as §1, §2

[15] = molecular target: T23, EGFRvIII amino acid residues 15 to 37 with Met27 to Ala mutation (human); experiment: yeast display flow cytometry, Myc-normalized
T23 construct: mutation is already in the entry
T23 sequence (peptide, as listed by the source, change not shown): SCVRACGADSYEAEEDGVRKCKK
Excerpt: as §1, §2

[16] = molecular target: T14, EGFRvIII amino acid residues 15 to 37 …; experiment: yeast display flow cytometry, Myc-normalized
Excerpt: as §1, §2

[17] = molecular target: T15, EGFRvIII amino acid residues 15 to 37 …; experiment: yeast display flow cytometry, Myc-normalized
Excerpt: as §1, §2

[18] = molecular target: T16, EGFRvIII amino acid residues 15 to 37 …; experiment: yeast display flow cytometry, Myc-normalized
Excerpt: as §1, §2

[19] = molecular target: T17, EGFRvIII amino acid residues 15 to 37 …; experiment: yeast display flow cytometry, Myc-normalized
Excerpt: as §1, §2

[20] = molecular target: T18, EGFRvIII amino acid residues 15 to 37 …; experiment: yeast display flow cytometry, Myc-normalized
Excerpt: as §1, §2

[21] = molecular target: T19, EGFRvIII amino acid residues 15 to 37 …; experiment: yeast display flow cytometry, Myc-normalized
Excerpt: as §1, §2

[22] = molecular target: T20, EGFRvIII amino acid residues 15 to 37 …; experiment: yeast display flow cytometry, Myc-normalized
Excerpt: as §1, §2

[23] = molecular target: T22, EGFRvIII, full length, overexpressed on …; experiment: cell-based or functional assay
[24] = molecular target: T21, EGFRvIII fragment amino acid residues …; experiment: yeast surface display, flow cytometry
[25] = molecular target: T22, EGFRvIII, full length, overexpressed on …; experiment: cell-based or functional assay; remark: listed apart in the source
[26] = molecular target: T24, recombinant human wild type EGFR protein (extracellular domain), denatured (human, UniProt P00533 25-645); experiment: ELISA Exp 1, mAb supernatant
T24 construct: Same protein as m23 after 95 C for 5 min in PBS with 40 mM DTT (denatured, reduced); also called wt EGFR Denatured

[27] = molecular target: T25, recombinant human wild type EGFR protein (extracellular domain), native (human, UniProt P00533 25-645); experiment: ELISA Exp 1, mAb supernatant
T25 construct: also called wt EGFR; EGFR WT

[28] = molecular target: T26, recombinant human EGFRvIII protein (extracellular domain), native (human, UniProt P00533 298-623); experiment: ELISA Exp 1, mAb supernatant
T26 construct: also called hEGFRvIII

[29] = molecular target: T27, recombinant human EGFRvIII protein (extracellular domain), denatured (human, UniProt P00533 298-623); experiment: ELISA Exp 1, mAb supernatant
T27 construct: Same protein as m21 after 95 C for 5 min in PBS with 40 mM DTT (denatured, reduced); also called EGFRvIII Denatured

[30] = molecular target: T24, recombinant human wild type EGFR …; experiment: ELISA Exp 2, purified mAb 1 ug/ml;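 note: ELISA of purified mAb binding to plate-coated antigen, native or heat/DTT-denatured, with pNPP substrate developed for 30 min and incubations at room temperature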
[31] = molecular target: T25, recombinant human wild type EGFR …; experiment: ELISA Exp 2, purified mAb 1 ug/ml;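 note: ELISA of purified mAb binding to plate-coated antigen, native or heat/DTT-denatured, with pNPP substrate developed for 30 min and incubations at room temperature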
[32] = molecular target: T26, recombinant human EGFRvIII protein …; experiment: ELISA Exp 2, purified mAb 1 ug/ml;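 note: ELISA of purified mAb binding to plate-coated antigen, native or heat/DTT-denatured, with pNPP substrate developed for 30 min and incubations at room temperature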
[33] = molecular target: T27, recombinant human EGFRvIII protein …; experiment: ELISA Exp 2, purified mAb 1 ug/ml;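 note: ELISA of purified mAb binding to plate-coated antigen, native or heat/DTT-denatured, with pNPP substrate developed for 30 min and incubations at room temperature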

| Binder | binding result [1] | binding result [2] | binding result [3] | binding result [4] | Kd [5] [nM] | % of binding vs wild-type fragment 15-37 [6] [%] | % of binding vs wild-type fragment 15-37 [7] [%] | % of binding vs wild-type fragment 15-37 [8] [%] | % of binding vs wild-type fragment 15-37 [9] [%] | % of binding vs wild-type fragment 15-37 [10] [%] | % of binding vs wild-type fragment 15-37 [11] [%] | % of binding vs wild-type fragment 15-37 [12] [%] | % of binding vs wild-type fragment 15-37 [13] [%] | % of binding vs wild-type fragment 15-37 [14] [%] | % of binding vs wild-type fragment 15-37 [15] [%] | % of binding vs wild-type fragment 15-37 [16] [%] | % of binding vs wild-type fragment 15-37 [17] [%] | % of binding vs wild-type fragment 15-37 [18] [%] | % of binding vs wild-type fragment 15-37 [19] [%] | % of binding vs wild-type fragment 15-37 [20] [%] | also measured |
| --- | --- | --- | --- | --- | --- | --- | --- | --- | --- | --- | --- | --- | --- | --- | --- | --- | --- | --- | --- | --- | --- |
| B1 | no binding (tested: 0-15% of wild-type binding) | no binding (tested: 0-15% of wild-type binding) | no binding (tested: 0-15% of wild-type binding) | no binding (tested: 0-15% of wild-type binding) | 21.2 | 94.7 | 194 | 86.7 | 136 | 98.8 | 92.4 | 49.9 | 169 | 102 | 101 | 170 | 99.2 | 71.6 | 94.1 | 94.3 | % of binding vs wild-type fragment 15-37 [21]: 68.4%; % of binding vs wild-type fragment 15-37 [22]: 146%; % survival (DM1 secondary-conjugate ADC surrogate assay, vs mouse IgG) [23]: 83%; binding result [24]: binds; % internalization (pHrodo surrogate assay, vs 225 mAb) [25]: 61%; ELISA absorbance 405 nm [26]: 0.041 A405; ELISA absorbance 405 nm [27]: 1.09 A405; ELISA absorbance 405 nm [28]: 1.5 A405; ELISA absorbance 405 nm [29]: 1.74 A405; ELISA absorbance 405 nm [30]: 0.003 A405; ELISA absorbance 405 nm [31]: 0.066 A405; ELISA absorbance 405 nm [32]: 1.19 A405; ELISA absorbance 405 nm [33]: 0.603 A405 |
| B2 | no binding (tested: 0-15% of wild-type binding) | no binding (tested: 0-15% of wild-type binding) | no binding (tested: 0-15% of wild-type binding) | no binding (tested: 0-15% of wild-type binding) | 19.7 | 93.1 | 246 | 81.6 | 151 | 108 | 95.2 | 40.4 | 154 | 37.9 | 96.5 | 194 | 97.9 | 77.3 | 106 | 80.4 | % of binding vs wild-type fragment 15-37 [21]: 71.8%; % of binding vs wild-type fragment 15-37 [22]: 144%; % survival (DM1 secondary-conjugate ADC surrogate assay, vs mouse IgG) [23]: 69%; binding result [24]: binds; % internalization (pHrodo surrogate assay, vs 225 mAb) [25]: 64%; ELISA absorbance 405 nm [26]: 0.049 A405; ELISA absorbance 405 nm [27]: 1.38 A405; ELISA absorbance 405 nm [28]: 1.43 A405; ELISA absorbance 405 nm [29]: 1.86 A405; ELISA absorbance 405 nm [30]: 0 A405; ELISA absorbance 405 nm [31]: 0.159 A405; ELISA absorbance 405 nm [32]: 1.49 A405; ELISA absorbance 405 nm [33]: 0.848 A405 |
